Results reported in patent US20090170762A1, “Treatment of Diabetes Related Obesity” (UUTech Limited, priority 2005, published 2009).
Square brackets hold non-standard residues; d marks the D form. Ends that are not written are not given here. * marks the point of attachment. Palmitoyl = CCCCCCCCCCCCCCCC(=O)*; Hyp = O=C(O)[C@@H]1C[C@@H](O)CN1

T1: human GIP-R (Homo sapiens, UniProt P48546)
T1 construct: expressed in transfected cells; host or cells: Chinese Hamster Lung (CHL) fibroblast cells, stably transfected
T1 sequence (P48546 22-466): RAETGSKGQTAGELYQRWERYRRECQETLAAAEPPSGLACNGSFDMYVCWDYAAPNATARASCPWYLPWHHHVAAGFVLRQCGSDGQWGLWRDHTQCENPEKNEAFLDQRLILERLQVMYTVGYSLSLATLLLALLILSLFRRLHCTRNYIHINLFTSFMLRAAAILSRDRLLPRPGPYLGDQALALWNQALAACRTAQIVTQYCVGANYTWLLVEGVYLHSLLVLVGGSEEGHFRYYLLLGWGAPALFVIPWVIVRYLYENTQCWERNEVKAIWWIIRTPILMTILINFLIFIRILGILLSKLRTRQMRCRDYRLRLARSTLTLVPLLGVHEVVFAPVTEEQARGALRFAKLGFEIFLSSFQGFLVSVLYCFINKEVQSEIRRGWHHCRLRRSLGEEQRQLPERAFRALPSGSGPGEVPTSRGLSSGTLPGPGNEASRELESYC

T2: human GIP receptor (GIP-R) (human, UniProt P48546 22-466)
T2 sequence (looked up): T1 sequence (P48546 22-466)


How the values were obtained:
DPP-IV = DPP-IV (Homo sapiens, UniProt P27487); assay: Degradation of GIP and Glu3-substituted GIP analogs by DPP-IV (HPLC); assay type: in vitro ADME; details: for Intact Peptide Remaining (%) 0 hrs. / remaining at 2 h, 2 μm / remaining at 4 h, 2 μm / remaining at 8 h, 2 μm: incubation with DPP-IV (5 mU), 37°C; for Intact Peptide Remaining (%) 0 hrs.: pH 7.8, 0 hrs; for half-life: incubation with DPP-IV, unit not given (time points in hrs), read-out: Estimated Half-Life; for remaining at 2 h, 2 μm / remaining at 4 h, 2 μm / remaining at 8 h, 2 μm: isolated DPP-IV enzyme (5 mU); for remaining at 2 h, 2 μm: pH 7.8, 2 hrs, read-out: Intact Peptide Remaining (%) 2 hrs.; for remaining at 4 h, 2 μm: pH 7.8, 4 hrs, read-out: Intact Peptide Remaining (%) 4 hrs.; for remaining at 8 h, 2 μm: pH 7.8, 8 hrs, read-out: Intact Peptide Remaining (%) 8 hrs.
Sequence of DPP-IV (P27487 whole entry, species assumed): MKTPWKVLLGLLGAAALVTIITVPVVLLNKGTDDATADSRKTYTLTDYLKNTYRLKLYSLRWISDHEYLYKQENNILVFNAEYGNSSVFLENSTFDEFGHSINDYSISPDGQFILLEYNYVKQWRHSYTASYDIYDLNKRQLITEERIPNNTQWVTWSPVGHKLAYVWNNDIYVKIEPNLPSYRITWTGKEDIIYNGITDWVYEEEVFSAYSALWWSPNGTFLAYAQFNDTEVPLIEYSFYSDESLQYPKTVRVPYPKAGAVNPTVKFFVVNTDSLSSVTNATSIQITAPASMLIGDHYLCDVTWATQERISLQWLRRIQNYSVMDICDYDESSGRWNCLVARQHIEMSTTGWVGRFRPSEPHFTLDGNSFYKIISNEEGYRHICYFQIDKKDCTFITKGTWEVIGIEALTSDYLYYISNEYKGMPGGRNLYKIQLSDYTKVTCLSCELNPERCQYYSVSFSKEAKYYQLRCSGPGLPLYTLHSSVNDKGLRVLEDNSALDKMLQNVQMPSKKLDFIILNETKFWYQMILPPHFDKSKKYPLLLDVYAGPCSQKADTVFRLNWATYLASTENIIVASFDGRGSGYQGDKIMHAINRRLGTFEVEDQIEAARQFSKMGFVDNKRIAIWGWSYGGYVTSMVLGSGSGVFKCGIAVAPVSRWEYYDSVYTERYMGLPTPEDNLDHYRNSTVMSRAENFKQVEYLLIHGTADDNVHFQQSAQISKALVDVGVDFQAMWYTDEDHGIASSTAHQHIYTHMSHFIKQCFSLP

human GIP-R = biological target: T1, human GIP-R; assay: Cyclic AMP production in GIP-R transfected CHL cells; assay type: cell-based
Description: Tissue Culture. […] (v/v) fetal bovine serum, 1% (v/v) antibiotics (100 U/ml penicillin, 0.1 mg/ml streptomycin) (all from Gibco, Paisley, Strathclyde, Scotland). BRIN-BD11 cells were cultured in RPMI-1640 tissue culture medium containing 10% (v/v) fetal bovine serum, 1% (v/v) antibiotics (100 U/ml penicillin, 0.1 mg/ml streptomycin) and 11.1 mm glucose. The origin and secretory characteristics of these cells have been described in detail previously (McClenaghan, N. H. et al., 1996, Diabetes 45:1132-1140). The cells were maintained in sterile tissue culture flasks (Corning Glass Works, Sunderland, UK) at 37° C. in an atmosphere of 5% CO2 and 95% air using a LEEC incubator (Laboratory Technical Engineering, Nottingham, UK).
Methods. […] The culture medium was removed and cells subsequently washed twice with 2 ml ice-cold HBS buffer (130 mm NaCl, 20 mm HEPES, 0.9 mm NaHPO4, 0.8 mm MgSO4, 5.4 mm KCl, 1.8 mm CaCl2, 5.6 mm glucose and 25 μm phenol red) (pH 7.4). […] The medium was subsequently removed and the cells lysed with […] of lysing solution (5% TCA, 3% SDS, 92% H2O, also containing 0.1 mm unlabelled cAMP and 0.1 mm unlabelled ATP) (Sigma, Poole, Dorset, UK). The plates were then left on a shaker at room temperature for 30 minutes and tritiated cAMP formation determined by column chromatography using Dowex and alumina ion exchange columns (BioRad Life Science Research, Alpha Analytical, Larne, UK) as previously described (Gault, V. A. et al 2002, Biochem. J. 367:913-920).

[1] = biological target: T2, human GIP receptor (GIP-R); assay: cell-based or functional assay

Molecule	Cyclic AMP EC50 (nm) [1]	cAMP response in presence of 10^-7 M GIP (% GIP max) [1]	other results
YA[Hyp]GTFISDYSIAMDK(Palmitoyl)IHQQDFVNWLLAQKGKKNDWKHNITQ [(Hyp^3)LysPAL^16GIP]			Intact Peptide Remaining (%) 0 hrs. (DPP-IV): 100%; half-life (DPP-IV): > 8 h; remaining at 2 h, 2 μm (DPP-IV): 100%; remaining at 4 h, 2 μm (DPP-IV): 100%; remaining at 8 h, 2 μm (DPP-IV): 100%
YA[Hyp]GTFISDYSIAMDKIHQQDFVNWLLAQKGKKNDWKHNITQ [(Hyp^3)GIP]			Intact Peptide Remaining (%) 0 hrs. (DPP-IV): 100%; half-life (DPP-IV): > 8 h; remaining at 2 h, 2 μm (DPP-IV): 100%; remaining at 4 h, 2 μm (DPP-IV): 100%; remaining at 8 h, 2 μm (DPP-IV): 100%; resistance to DPP-IV degradation (DPP-IV; words, up to 8 hours incubation): completely resistant; EC50 (human GIP-R): 1340 nM; remaining activity at 0.1 µM (human GIP-R; CHL, read-out: cAMP response in presence of 10^-7 M GIP (% GIP max)): 56 ± 4%
YA[Hyp]GTFISDYSIAMDK(Palmitoyl)IHQQDFVNWLLAQKGKKNDWKHNITQ [(Hyp^3)LysPAL^16GIP]	138 nm	48 % GIP max	
YA[Hyp]GTFISDYSIAMDKIHQQDFVNWLLAQKGKKNDWKHNITQ [(Hyp^3)GIP]	1340 nm	56 % GIP max	
YAAGTFISDYSIAMDKIHQQDFVNWLLAQKGKKNDWKHNITQ [(Ala^3)GIP]	2.3 nm	88 % GIP max	
YAFGTFISDYSIAMDKIHQQDFVNWLLAQKGKKNDWKHNITQ [(Phe^3)GIP]	1 nm	62 % GIP max	
YAKGTFISDYSIAMDKIHQQDFVNWLLAQKGKKNDWKHNITQ [(Lys^3)GIP]	2.6 nm	63.5 % GIP max	

The next lines start with results.

Cyclic AMP EC50 (nm) [1]	cAMP response in presence of 10^-7 M GIP (% GIP max) [1]	Molecule	other results
0.5 nm	100 % GIP max	native GIP (glucose-dependent insulinotropic polypeptide; gastric inhibitory polypeptide), GIP(1-42) (from UniProt P09681 52-93) (ligand)	
207 nm	66 % GIP max	YAPGTFISDYSIAMDKIHQQDFVNWLLAQKGKKNDWKHNITQ [(Pro^3)GIP]	
1.5 nm	76 % GIP max	YAYGTFISDYSIAMDKIHQQDFVNWLLAQKGKKNDWKHNITQ [(Tyr^3)GIP]	
3 nm	78 % GIP max	YAWGTFISDYSIAMDKIHQQDFVNWLLAQKGKKNDWKHNITQ [(Trp^3)GIP]	
870 nm	63 % GIP max	YAPGTFISDYSIAMDK(Palmitoyl)IHQQDFVNWLLAQKGKKNDWKHNITQ [(Pro^3)LysPAL^16GIP]	
